Among the data in patent publication US20250296971A1, “GASTRIC INHIBITORY PEPTIDE RECEPTOR LIGANDS” (priority 2021, published 2025) are pIC50, pKD and t1/2 values, retold here.

To fix the notation:
B1: AGLU-Glutar-APAc-Hse-Trp-5Clw-Hyp-Glu-leu-[Cys(2Lut)-Apc(DOTA-glu(AGLU))-Leu-Ile-Cys]-APAc-glu(AGLU)-NH2 (peptide)
peptide: XWXXEXCXLIC
modifications: not fully specified; N-term AGLU-Glutar-APAc; Hse; 5Clw; Hyp; leu (D-Leu); thioether cycle [Cys(2Lut)..Cys]; Apc(DOTA-glu(AGLU)); C-term APAc-glu(AGLU)-NH2
B2: HO-Succinyl-Trp-5Clw-Hyp-Glu-leu-[Cys(2Lut)-Thp-Leu-Ile-Cys]-APAc-lys(MeO2kDaPEGAc)-Lys(DOTA)-NH2 (peptide)
peptide: Suc-W[Trp(5-Cl)][Hyp]E[dL]C[Thp]LIC
modifications: linker 6-10 via 2Lut; not fully specified (C-terminus); printed as HO-Succinyl-Trp-5Clw-Hyp-Glu-leu-[Cys(2Lut)-Thp-Leu-Ile-Cys]-APAc-lys(MeO2kDaPEGAc)-Lys(DOTA)-NH2
B3: AGLU-Glutar-APAc-Hse-Trp-5Clw-Tap-Glu-leu-[Cys(2Lut)-Apc(DOTA)-Leu-Ile-Cys]-APAc-glu(AGLU)-NH2 (peptide)
peptide: XWXXEXCXLIC
modifications: N-term AGLU-Glutar-APAc; Hse; 5Clw; Tap; leu (D-Leu); thioether cycle [Cys(2Lut)..Cys]; Apc(DOTA); C-term APAc-glu(AGLU)-NH2

*1 amine or outer side, *2 acyl side, *3 side chain or, on linkers, in order; H or OH if unused. Bridges are numbered along the chain shown (N, C = ends). Primed or numbered codes have the meaning given here. Where no end group is shown, it is not given here. [ ]: non-standard residue; d: D form. The star is where a group is joined. Ttds = 1,13-diamino-4,7,10-trioxatridecan-succinamic acid, NCCCOCCOCCOCCCNC(=O)CCC(=O)*; 2,6‑lutidylidene = 2Lut, Cys-Cys crosslink via 2,6-lutidylidene; tMeBn(DOTA-PP) = mesitylene bridge bearing DOTA via piperazine; APAc″ = 4-amino-1-carboxymethylpiperidine, NC1CCN(CC(=O)*)CC1; dE(AGLU) = D-glutamic acid bearing 1-amino-1-deoxy-D-glucitol; MeO36PEG = monodisperse PEG 36 units conjugated with acetyl; Pro(trans-4-NH2) = O=C([C@@H]1C[C@@H](N[*:3])CN1[*:1])[*:2]; DOTA = O=C(O)CN1CCN(CC(=O)O)CCN(CC(=O)*)CCN(CC(=O)O)CC1; MeO2kDaPEGAc″ = methoxy polydisperse 2 kDa PEG acetyl; 2Lut = 2,6-lutidylidene bridge between two thiols; Trp(5-Cl) = N[C@@H](Cc1c[nH]c2ccc(Cl)cc12)C(=O)O; Trp(6-Cl) = N[C@@H](Cc1c[nH]c2cc(Cl)ccc12)C(=O)O; Pyridine(2,6-diCH2) = c1cc(C[*:1])nc(C[*:2])c1; APAc = 4-amino-1-carboxymethylpiperidine; Phe(2-Cl) = N[C@@H](Cc1ccccc1Cl)C(=O)O; mXylylene = c1cc(C[*:1])cc(C[*:2])c1; Glutaryl = O=C(CCCC(=O)[*:2])[*:1]; AGLU = 1-amino-1-deoxy-D-glucitol; Hyp = O=C(O)[C@@H]1C[C@@H](O)CN1; Cysteamide = C(CS[*:3])N[*:1]; Suc = O=C(CCC(=O)[*:2])[*:1]; GLUSEROL = not defined here; NTASEROL = not defined here; dDab = NCC[C@@H](N)C(=O)O; hCys = N[C@@H](CCS)C(=O)O; Api = NC1(C(=O)O)CCNCC1; Thp = NC1(C(=O)O)CCOCC1; Aib = CC(C)(N)C(=O)O; mli″ = maleimide

The target of the first assay is human Gastric Inhibitory Peptide Receptor (GIPR) (human) (UniProt P48546). Nature of the assay: FACS competition vs biotinylated GIP-057 on CHO-K1-hGIPR cells; category B: pIC50 7.1-8.0.
Chain of human Gastric Inhibitory Peptide Receptor (GIPR) (human) (P48546 22-466 limits assumed): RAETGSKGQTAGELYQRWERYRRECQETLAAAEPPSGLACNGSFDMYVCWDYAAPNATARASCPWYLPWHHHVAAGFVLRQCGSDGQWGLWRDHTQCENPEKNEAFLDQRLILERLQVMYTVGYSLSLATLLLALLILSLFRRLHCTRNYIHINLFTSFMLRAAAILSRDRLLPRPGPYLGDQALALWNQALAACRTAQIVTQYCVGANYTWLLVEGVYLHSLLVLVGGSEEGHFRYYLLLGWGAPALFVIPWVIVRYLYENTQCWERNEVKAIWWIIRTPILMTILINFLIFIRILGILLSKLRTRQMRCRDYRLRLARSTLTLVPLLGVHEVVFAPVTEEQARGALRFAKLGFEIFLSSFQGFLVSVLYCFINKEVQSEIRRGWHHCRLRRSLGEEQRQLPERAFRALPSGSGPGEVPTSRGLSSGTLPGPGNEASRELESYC
The molecule Ac-DW[Trp(5-Cl)][Hyp]E[dL][hCys][Thp]LIC-NH2 (linker 7-11 via mli″) [Ac-Asp-Trp-5Clw-Hyp-Glu-leu-[Hcy(mli)-Thp-Leu-Ile-Cys]-NH2] had a pIC50 of 7.1 to 8 pic50.
As for Ac-DW[Trp(5-Cl)][Hyp]E[dL][hCys][Thp]LI[hCys]-NH2 (disulfide 7-11) [Ac-Asp-Trp-5Clw-Hyp-Glu-leu-[Hcy-Thp-Leu-Ile-Hcy]-NH2], the pIC50 is 7.1 to 8 pic50.
The same measure, in the same setting: the same measure for Ac-D[Phe(2-Cl)][Trp(5-Cl)][Hyp]E[dL]C[Thp]LIC-NH2 (linker 7-11 via Pyridine(2,6-diCH2)) [Ac-Asp-Ocf-5Clw-Hyp-Glu-leu-[Cys(2Lut)-Thp-Leu-Ile-Cys]-NH2]: 7.1 to 8 pic50.

For another assay, the target named is human Gastric Inhibitory Peptide Receptor (human) (UniProt P48546). Nature of the assay: FACS competition with GIP-057 on CHO-K1-hGIPR cells; pIC50 category B: 7.1-8.0.
Chain of human Gastric Inhibitory Peptide Receptor (human) (P48546 22-466 limits assumed): as above
With “DOTA-Ttds-Nmd-Trp-Trp-Pro-Glu-Leu-[Cys(3MeBn)-Aib-Leu-Ile-AET] (peptide)”, the pIC50 lay in the range of 7.1 to 8 pic50.
As for {DOTA-Ttds}-D[Trp(6-Cl)]WPE[dL]C[Aib]LI[Cysteamide] (linker 7-11 via mXylylene) [DOTA-Ttds-Asp-6Clw-Trp-Pro-Glu-leu-[Cys(3MeBn)-Aib-Leu-Ile-AET]], the pIC50 is 7.1 to 8 pic50.
Take {AGLU-Glutaryl}-DW[Trp(5-Cl)][Pro(trans-4-NH2)]E[dL]C[dK](DOTA)LIC-{APAc-dE(AGLU)-NH2} (linker 7-11 via Pyridine(2,6-diCH2)) [AGLU-Glutar-Asp-Trp-5Clw-Tap-Glu-leu-[Cys(2Lut)-lys(DOTA)-Leu-Ile-Cys]-APAc-glu(AGLU)-NH2]: the pIC50 is 7.1 to 8 pic50.
Take {AGLU-Glutaryl-APAc″}-DW[Trp(5-Cl)][Hyp]E[dL]C[Api](DOTA)LIC (linker 7-11 via Pyridine(2,6-diCH2); not fully specified (C-terminus)) [AGLU-Glutar-APAc-Asp-Trp-5Clw-Hyp-Glu-leu-[Cys(2Lut)-Apc(DOTA)-Leu-Ile-Cys]-lys(MeO36PEG)-NH2]: the pIC50 lay within 7.1 to 8 pic50.
In the case of {MeO36PEG-APAc}-DW[Trp(5-Cl)][Hyp]E[dL]C[Api](DOTA)LIC-{APAc-dE(AGLU)-NH2} (linker 7-11 via Pyridine(2,6-diCH2)) [MeO36PEG-APAc-Asp-Trp-5Clw-Hyp-Glu-leu-[Cys(2Lut)-Apc(DOTA)-Leu-Ile-Cys]-APAc-glu(AGLU)-NH2], the pIC50 fell in the range of 7.1 to 8 pic50.
In turn, Suc-W[Trp(5-Cl)][Hyp]E[dL]C[Api](MeO2kDaPEGAc″)LIC-{APAc-Lys(DOTA)-NH2} (linker 6-10 via Pyridine(2,6-diCH2)) [HO-Succinyl-Trp-5Clw-Hyp-Glu-leu-[Cys(2Lut)-Apc(MeO2kDaPEGAc)-Leu-Ile-Cys]-APAc-Lys(DOTA)-NH2] gave a pIC50 of 7.1 to 8 pic50.
The molecule B1 registered a pIC50 of 7.1 to 8 pic50.
Molecule {MeO36PEG-APAc″}-DW[Trp(5-Cl)][Hyp]E[dL]C[Api](DOTA)LIC-{dE(AGLU)-NH2} (linker 7-11 via Pyridine(2,6-diCH2)) [MeO36PEG-APAc-Asp-Trp-5Clw-Hyp-Glu-leu-[Cys(2Lut)-Apc(DOTA)-Leu-Ile-Cys]-glu(AGLU)-NH2] returned a pIC50 of 7.1 to 8 pic50.
In turn, B2 registered a pIC50 of 7.1 to 8 pic50.
Same read-out and setting: the value for Ac-DW[Trp(5-Cl)][Hyp]E[dL]C[Thp]LIC-NH2 (linker 7-11 via tMeBn(DOTA-PP)) [Ac-Asp-Trp-5Clw-Hyp-Glu-leu-[Cys(tMeBn(DOTA-PP))-Thp-Leu-Ile-Cys]-NH2] was 7.1 to 8 pic50.
As for B3, the pIC50 lay in the range of 7.1 to 8 pic50.
Still for that read-out and setting: the same measure for {AGLU-Glutaryl}-DW[Trp(5-Cl)][Pro(trans-4-NH2)]E[dL]C[dDab](DOTA)LIC-{APAc-dE(AGLU)-NH2} (linker 7-11 via 2,6‑lutidylidene) [AGLU-Glutar-Asp-Trp-5Clw-Tap-Glu-leu-[Cys(2Lut)-dab(DOTA)-Leu-Ile-Cys]-APAc-glu(AGLU)-NH2]: 7.1 to 8 pic50.
On to {MeO36PEG-APAc}-DW[Trp(5-Cl)][Pro(trans-4-NH2)]E[dL]C[Api](DOTA)LIC-{APAc-dE(AGLU)-NH2} (linker 7-11 via Pyridine(2,6-diCH2)) [MeO36PEG-APAc-Asp-Trp-5Clw-Tap-Glu-leu-[Cys(2Lut)-Apc(DOTA)-Leu-Ile-Cys]-APAc-glu(AGLU)-NH2], for which the pIC50 lay within 7.1 to 8 pic50.

For a further assay, the target named is biotinylated extracellular domain of the human GIP receptor (bioGIPR) (human) (UniProt P48546). Nature of the assay: SPR single cycle kinetics, bioGIPR captured on chip; category A: pKD >9.0.
Chain of biotinylated extracellular domain of the human GIP receptor (bioGIPR) (human) (P48546 24-138 limits assumed): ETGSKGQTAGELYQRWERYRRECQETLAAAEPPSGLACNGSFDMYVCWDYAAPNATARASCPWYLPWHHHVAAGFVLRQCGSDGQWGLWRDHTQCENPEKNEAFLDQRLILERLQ
Molecule {NTASEROL}-DW[Trp(5-Cl)][Pro(trans-4-NH2)]E[dL]C[Api](DOTA)LIC-{APAc-GLUSEROL} (linker 7-11 via Pyridine(2,6-diCH2); reading uncertain) [NTASEROL-Asp-Trp-5Clw-Tap-Glu-leu-[Cys(2Lut)-Apc(DOTA)-Leu-Ile-Cys]-APAc-GLUSEROL] came in with a pKD greater than 9 pkd.

A further assay deals with human Gastric Inhibitory Peptide Receptor (GIPR) (human) (UniProt P48546). Nature of the assay: FACS competition vs biotinylated GIP-057 on CHO-K1-hGIPR cells; category A: pIC50 >8.0.
In turn, {NTASEROL}-DW[Trp(5-Cl)][Pro(trans-4-NH2)]E[dL]C[Api](DOTA)LIC-{APAc-GLUSEROL} (linker 7-11 via Pyridine(2,6-diCH2); reading uncertain) [NTASEROL-Asp-Trp-5Clw-Tap-Glu-leu-[Cys(2Lut)-Apc(DOTA)-Leu-Ile-Cys]-APAc-GLUSEROL] yielded a pIC50 greater than 8 pic50.

A further assay concerns the target biotinylated extracellular domain of the human GIP receptor (bioGIPR) (human) (UniProt P48546). Nature of the assay: SPR single cycle kinetics, bioGIPR captured on chip; category A: t1/2 >15 min.
With {NTASEROL}-DW[Trp(5-Cl)][Pro(trans-4-NH2)]E[dL]C[Api](DOTA)LIC-{APAc-GLUSEROL} (linker 7-11 via Pyridine(2,6-diCH2); reading uncertain) [NTASEROL-Asp-Trp-5Clw-Tap-Glu-leu-[Cys(2Lut)-Apc(DOTA)-Leu-Ile-Cys]-APAc-GLUSEROL], the t1/2 was greater than 15 min.
